Assay results taken from US20220213181A1 (Novartis, published 2022).

Key:
[1] = target: T1, Human ANGPTL3(17-460)-FLAG-His-Avi (human, UniProt Q9Y5C1 17-460, biotin on the C-terminal Avi tag (BirA)); assay: Octet (ForteBio) kinetics; average KD of the runs; no binding at 25 nM
T1 construct: also called full length human ANGPTL3; hANGPTL3
T1 sequence: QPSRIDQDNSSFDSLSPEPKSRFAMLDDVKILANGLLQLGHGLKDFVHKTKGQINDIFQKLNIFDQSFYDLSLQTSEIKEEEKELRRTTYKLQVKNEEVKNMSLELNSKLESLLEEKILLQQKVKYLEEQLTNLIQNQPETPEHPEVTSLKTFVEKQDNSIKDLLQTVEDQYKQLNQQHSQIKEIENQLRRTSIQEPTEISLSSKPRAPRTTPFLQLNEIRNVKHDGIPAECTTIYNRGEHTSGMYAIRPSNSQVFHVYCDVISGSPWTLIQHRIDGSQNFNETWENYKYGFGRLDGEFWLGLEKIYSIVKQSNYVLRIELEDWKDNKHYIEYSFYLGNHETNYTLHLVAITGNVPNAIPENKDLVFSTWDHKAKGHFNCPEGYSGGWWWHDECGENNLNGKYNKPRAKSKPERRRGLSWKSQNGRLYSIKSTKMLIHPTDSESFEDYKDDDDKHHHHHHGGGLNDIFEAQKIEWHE

[2] = target: T1, Human ANGPTL3(17-460)-FLAG-His-Avi; assay: Octet (ForteBio) kinetics, biotinylated antigen on streptavidin sensor, IgG in solution; no binding at 25 nM
[3] = target: T2, Rat ANGPTL4(24-405)-FLAG-His6-Avi (rat, UniProt Q6TMA8 24-405, biotin on the C-terminal Avi tag (BirA) where the protein is immobilised); assay: Octet (ForteBio) kinetics, biotinylated antigen on streptavidin sensor, IgG in solution; Octet kinetics; run 3 on rat ANGPTL4
T2 sequence: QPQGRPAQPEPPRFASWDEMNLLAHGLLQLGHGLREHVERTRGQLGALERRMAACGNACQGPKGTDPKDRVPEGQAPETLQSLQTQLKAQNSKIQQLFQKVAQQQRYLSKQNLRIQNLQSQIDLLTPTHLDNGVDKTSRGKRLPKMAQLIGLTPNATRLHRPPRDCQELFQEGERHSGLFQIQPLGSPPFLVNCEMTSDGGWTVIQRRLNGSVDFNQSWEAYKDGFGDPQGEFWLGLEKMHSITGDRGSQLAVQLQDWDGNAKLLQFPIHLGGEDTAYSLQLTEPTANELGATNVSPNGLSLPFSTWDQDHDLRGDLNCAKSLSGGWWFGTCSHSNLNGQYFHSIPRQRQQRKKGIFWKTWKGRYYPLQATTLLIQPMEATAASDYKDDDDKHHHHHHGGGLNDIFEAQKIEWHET

[4] = target: T2, Rat ANGPTL4(24-405)-FLAG-His6-Avi; assay: Octet (ForteBio) kinetics, biotinylated antigen on streptavidin sensor, IgG in solution; Octet kinetics, rat ANGPTL4 on the sensor, antibody up to 25 nM; run 1
[5] = target: T3, Mouse ANGPTL4(26-410)-FLAG-His6-Avi (mouse, UniProt Q9Z1P8 24-410, biotin on the C-terminal Avi tag (BirA) where the protein is immobilised); assay: Octet (ForteBio) kinetics, biotinylated antigen on streptavidin sensor, IgG in solution; Octet kinetics, mouse ANGPTL4 on the sensor, antibody up to 25 nM; run 1
T3 sequence: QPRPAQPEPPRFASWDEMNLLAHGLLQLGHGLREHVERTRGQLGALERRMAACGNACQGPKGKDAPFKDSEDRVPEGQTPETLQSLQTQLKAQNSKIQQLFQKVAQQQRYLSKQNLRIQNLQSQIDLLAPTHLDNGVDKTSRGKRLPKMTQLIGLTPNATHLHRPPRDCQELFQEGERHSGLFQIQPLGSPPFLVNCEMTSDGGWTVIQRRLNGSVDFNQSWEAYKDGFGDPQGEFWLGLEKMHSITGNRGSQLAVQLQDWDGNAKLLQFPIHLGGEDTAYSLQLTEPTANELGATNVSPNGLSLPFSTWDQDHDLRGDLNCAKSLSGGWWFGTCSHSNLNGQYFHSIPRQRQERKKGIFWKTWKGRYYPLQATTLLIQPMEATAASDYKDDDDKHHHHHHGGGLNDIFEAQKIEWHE

[6] = target: T3, Mouse ANGPTL4(26-410)-FLAG-His6-Avi; assay: Octet (ForteBio) kinetics, biotinylated antigen on streptavidin sensor, IgG in solution; Octet kinetics, mouse ANGPTL4 on the sensor, antibody up to 25 nM; run 2

Kd [1]: > 6 nM
Kd [2]: > 6 nM
Kd [3]: 5.53 nM
koff [3]: 0.00028 s⁻¹
kon [3]: 52000 M⁻¹ s⁻¹
Kd [4]: 7.47 nM
koff [4]: 0.0012 s⁻¹
kon [4]: 160000 M⁻¹ s⁻¹
Kd [5]: 8.25 nM
koff [5]: 0.0029 s⁻¹
kon [5]: 360000 M⁻¹ s⁻¹
koff [6]: 0.0018 s⁻¹
kon [6]: 430000 M⁻¹ s⁻¹
B1: NEG276-LALA (antibody, human IgG1, kappa, L234A L235A)
heavy: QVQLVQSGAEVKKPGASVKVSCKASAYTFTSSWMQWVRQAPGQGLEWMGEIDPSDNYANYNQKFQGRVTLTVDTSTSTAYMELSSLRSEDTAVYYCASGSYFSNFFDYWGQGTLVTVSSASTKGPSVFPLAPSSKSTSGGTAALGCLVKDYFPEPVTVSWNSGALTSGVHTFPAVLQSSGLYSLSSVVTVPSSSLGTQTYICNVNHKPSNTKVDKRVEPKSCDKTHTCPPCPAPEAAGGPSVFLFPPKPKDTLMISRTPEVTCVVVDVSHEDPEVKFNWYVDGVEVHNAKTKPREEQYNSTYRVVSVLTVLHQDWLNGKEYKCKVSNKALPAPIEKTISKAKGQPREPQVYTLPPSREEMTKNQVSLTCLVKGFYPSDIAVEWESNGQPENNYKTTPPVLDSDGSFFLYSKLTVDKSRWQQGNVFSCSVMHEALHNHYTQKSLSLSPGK
light: EIVMTQSPATLSVSPGERATLSCKASQDIGSNLNWLQQKPGQAPRRLIYAVSNRGPGIPARFSGSRSGSEYTLTISSLQSEDFAVYYCLQYASSPWTFGQGTKVEIKRTVAAPSVFIFPPSDEQLKSGTASVVCLLNNFYPREAKVQWKVDNALQSGNSQESVTEQDSKDSTYSLSSTLTLSKADYEKHKVYACEVTHQGLSSPVTKSFNRGEC
